The target in test [1] is BoLA-1*023:01 MHC class I molecule with bovine β2-microglobulin (bovine) (UniProt P01888). As to the kind of experiment: ELISA. (In general: An ELISA detects its analyte on a solid surface through an enzyme-linked reagent.)
Another test relates to CTL 495. As to the kind of experiment: IFN-γ ELISPOT with Tp9-specific CTL line 495. The class given is cell-based, cattle. The following applies: for IFN-γ ELISPOT stimulation of CTL 495, in words: Supplemental Fig. 1, minimal epitope peptides, relatively high peptide concentration; for IFN-γ ELISPOT response of CTL 495 vs Tp9_67–75 Muguga, in words: Fig. 3A, alanine/glycine-substituted peptides, 2.5 × 10^4 CD8+ cells/well, 20 h 37°C, reduced = SFU >15% lower than Tp9_67–75. From the text: (§1) Autologous T. parva Muguga-infected lymphocyte (TpM) lines from animals BF092, 4003, and 495 and TpM-specific bulk CTLs lines after immunization by ITM were established as previously described ([37]). In brief, PBMCs harvested from immunized animals were stimulated at least three times, at weekly intervals, by coculturing with irradiated autologous T. parva–infected cells (TpMs) at a ratio of 5–10:1 (TpMs:PBMC) in RPMI media containing 15% T cell growth factor ([38]). Cells were maintained in RPMI 1640 culture medium (Sigma-Aldrich) containing 10% heat-inactivated FCS (Life Technologies), 2 mM L-glutamine (Sigma-Aldrich), 1 mg/ml gentamicin (Carl-Roth), 100 UI/ml penicillin (Sigma-Aldrich), 100 mg/ml streptomycin (Sigma-Aldrich), 2-ME (BDH, final concentration: 50 μM ([39]); a detailed description of our protocols can be found in Ref. [40]). The CTL lines from 4003 (A14 homozygous) and 495 (A10/A14 heterozygous) were propagated by stimulating them with cesium-137–irradiated autologous TpM (the use of radioisotope and irradiator was per institutional radiation safety guidelines; the length of exposure for inhibiting replication was empirically determined and found to be optimal with an exposure of 30 min at a distance of 10 cm of the cesium-137 source at 265 rad/min using a top linear irradiator [Conservatome, Lyon, France]), at a ratio of 1:5–10 (CTL:TpMs), and supplementing the media with 2 ng/ml recombinant human IL-2 (Sigma) or 15% T cell growth factor. Cells were incubated at 37°C in a 5% CO2 humidified atmosphere. Both CTLs recognize the Tp9 Ag. CTL clone 8 was derived from the CTL 495 by limiting dilution.
IFN-γ ELISPOT assay was performed as previously described ([34]). In brief, a monoclonal anti-bovine IFN-γ Ab (cat # MCA1783; Serotec, Oxford, U.K.) was incubated overnight at 4°C on ELISPOT plates (cat # MAIPN4550; Millipore, Billerica, MA, USA) and then blocked with RPMI containing 10% heat-inactivated FCS for 2 h at 37°C. Peptides (purity: 95%; Mimotopes) were added at concentrations ranging from 0.1 to 1 μM and CD8^+ cells at 2.5 × 10^4 cells/well. The plates were incubated at 37°C for 20 h. Release of IFN-γ was monitored with primary rabbit polyclonal anti-bovine IFN-γ Ab (Sigma-Aldrich, St. Louis, MO, USA) and secondary alkaline phosphatase–conjugated monoclonal anti-rabbit IgG (cat # A2556; Sigma-Aldrich, St. Louis, MO). Development of plates was done by addition of the substrate solution Sigma Fast (BCIP/NBT, cat # B5655-25TAB; Sigma-Aldrich, St. Louis, MO). Plates were read using an automated ELISPOT reader (AID Classic ELISpot Reader).
Statistical analyses of data were performed with GraphPad Prism version 6 software. To determine the Kd, binding, and half-life values, we performed a nonlinear regression curve fit (One-Site, Specific binding). […]

The test system of test [2] is BoLA-1*023:01 class I molecule. As to the kind of experiment: Peptide–MHC class I binding assay (ELISA of p-MHC monomer folding). The arrangement: species or system bovine. The note with it: for Peptide binding to BoLA-1*023:01 (folding in ELISA), in words: Fig. 1B, 10-mer and peptides with 1 or 2 aa deletions at N- or C-terminal end; for Kd: 25 nM BoLA-1*023:01, 150 nM bovine β2m, peptide 0–40 μM, 48 h 18°C, one-site specific binding fit, representative experiment, duplicates. As to the method:
Folding of p-MHC class I complexes was assessed with an ELISA assay as described by Svitek et al. ([34]). The BoLA-1*023:01 molecule (25 nM) and bovine β2m molecule (150 nM) were incubated in a 96-well plate with Tp9_67–75 (Muguga, G1 to A9, or V2 to V9) peptides (Mimotopes, purity: 95%) at various peptide concentrations ranging from 0 to 40 μM. After an incubation of 48 h at 18°C, the complexes were transferred to another 96-well plate precoated with streptavidin (catalog number [cat #] 436014; Nunc), which captures biotinylated heavy chains, and incubated for 3 h at 4°C. After washing, the W6/32 mAb (cat # SC-32235; Santa Cruz Biotechnology, TX), which binds to a monomorphic epitope on β2m, but only when it is incorporated in p-MHC class I complexes, was added for 1 h at 4°C. After washing, anti-mouse IgG coupled to peroxidase (cat # A9917-1ML; Sigma-Aldrich) was added to the plate followed by incubation for an hour at room temperature and further rounds of washes. Colorimetric change was performed by adding the TMB Plus2 “Ready to Use” Substrate (cat # 4395H; Kem En Tec) for 10 min at room temperature. The reaction was stopped by adding H2SO4 (0.3 M), and OD was measured using a Synergy HT ELISA plate reader (BioTek) at 450 nm. Kd values were determined by performing a nonlinear regression curve fit (One-Site Specific Binding) with GraphPad Prism (version 6).
Statistical analyses of data were performed with GraphPad Prism version 6 software. To determine the Kd, binding, and half-life values, we performed a nonlinear regression curve fit (One-Site, Specific binding). R^2 values and confidence intervals were generated to assess curve fit and differences between Kd values. When comparing data generated with the ELISPOT assay with a single peptide concentration, we performed a one-way ANOVA with Dunnett’s correction for multiple comparison. When comparing data generated with the ELISPOT assay with varying peptide concentrations, we performed a two-way ANOVA with Dunnett’s correction for multiple comparison (main column effect). All datasets were compared with the data obtained with the Tp9_67–75 Muguga epitope. All experiments were repeated twice using duplicate measurements.

The next test has as its system CTL 4003. The test is described as follows: IFN-γ ELISPOT with Tp9-specific CTL line 4003. It counts as cell-based, cattle. The note with it: Fig. 3A; alanine/glycine-substituted peptides; 2.5 × 10^4 CD8+ cells/well, 20 h 37°C; reduced = SFU >15% lower than Tp9_67–75.
Source text: as §1, with “Cells were maintained in RPMI 1640 culture medium (Sigma-Aldrich) containing 10% heat-inactivated FCS (Life Technologies), 2 mM L-glutamine (Sigma-Aldrich), 1 mg/ml gentamicin (Carl-Roth), 100 UI/ml penicillin (Sigma-Aldrich), 100 mg/ml streptomycin (Sigma-Aldrich), 2-ME (BDH, final concentration: 50 μM ([39]); a detailed description of our protocols can be found in Ref. [40]).” left out, “Cells were incubated at 37°C in a 5% CO2 humidified atmosphere. Both CTLs recognize the Tp9 Ag. CTL clone 8 was derived from the CTL 495 by limiting dilution.” left out
IFN-γ ELISPOT assay was performed as previously described ([34]). […] Release of IFN-γ was monitored with primary rabbit polyclonal anti-bovine IFN-γ Ab (Sigma-Aldrich, St. Louis, MO, USA) and secondary alkaline phosphatase–conjugated monoclonal anti-rabbit IgG (cat # A2556; Sigma-Aldrich, St. Louis, MO). […]

The target in test [3] is BoLA-1*023:01 MHC class I molecule with bovine β2-microglobulin (bovine) (UniProt P01888). The test is described as follows: ELISA. The source holds these as a separate data set.

Read-outs that look alike come from different tables or passages of the source.

Data on 17 substances can be found in paper PMC8802549 (The Journal of Immunology Author Choice, 2022).

For orientation: Kd means the equilibrium constant for the complex coming apart. Substance “Tp9A9 peptide (Tp9_(67–75) Muguga with alanine at position 9)” displayed a Kd in test [1] of 15 nM.

For “AKFPGMKK [Tp9_67–74, 8-mer Tp9 peptide with 2 aa deleted at the C-terminal end]”, the “IFN-γ ELISPOT stimulation of CTL 495, in words” value in the test on CTL 495 is recorded as “capacity to stimulate”. For the same substance, the “Peptide binding to BoLA-1*023:01 (folding in ELISA), in words” value in test [2] is “showed binding”.

In the case of “AKFPGMKKSK [Tp9_67–76, 10-mer peptide from the T. parva (Muguga) Tp9 Ag]”, the “IFN-γ ELISPOT stimulation of CTL 495, in words” value in the test on CTL 495 is recorded as “capacity to stimulate”. Also, the “Peptide binding to BoLA-1*023:01 (folding in ELISA), in words” value in test [2] is on record as “showed binding”.

On to “Tp9A2 peptide (Tp9_(67–75) Muguga with alanine at position 2)”, for which, in test [1], the Kd is 192 nM.

Substance “Tp9G1 peptide (Tp9_(67–75) Muguga with glycine at position 1)” came in with a Kd in test [1] of 13.4 nM.

Turning to “FPGMKKSK [Tp9_69–76, Tp9 peptide with 2 aa deleted at the N-terminal end]”, in test [2], the “Peptide binding to BoLA-1*023:01 (folding in ELISA), in words” value is recorded as “no folding can be measured”.

In the case of “Tp9A9: Tp9_67–75 Muguga with alanine substitution at position 9 (AKFPGMKKA)”, in the test on CTL 4003, the “IFN-γ ELISPOT response of CTL 4003 vs Tp9_67–75 Muguga, in words” value is “enhanced stimulation”. For the same substance, the “IFN-γ ELISPOT response of CTL 495 vs Tp9_67–75 Muguga, in words” value in the test with CTL 495 is “enhanced stimulation”. Further, the Kd in test [2] (Fig. 2 lower panel, alanine-substituted Tp9_67–75) was 15 nM.

As for BoLA-1*023:01 control peptide, the Kd in test [1] came to 6.94 nM.

In the case of Tp9_(67–75) Muguga epitope peptide, the figures for the dissociation constant Kd in test [3] and in test [1] were 29.7 nM and 13.9 nM, respectively.

“Tp9A3 peptide (Tp9_(67–75) Muguga with alanine at position 3)” yielded a dissociation constant Kd in test [1] of 86.2 nM.

In test [1], “Tp9A6 peptide (Tp9_(67–75) Muguga with alanine at position 6)” registered a dissociation constant Kd of 16.6 nM.

Turning to “Tp9A4 peptide (Tp9_(67–75) Muguga with alanine at position 4)”, the dissociation constant (Kd) in test [1] is 28 nM.

On to “Tp9A7 peptide (Tp9_(67–75) Muguga with alanine at position 7)”, for which the dissociation constant Kd in test [1] was 10.1 nM.

In test [1], “Tp9A5 peptide (Tp9_(67–75) Muguga with alanine at position 5)” displayed a Kd of 23 nM.

Take “Tp9G1: Tp9_67–75 Muguga with glycine at position 1 (GKFPGMKKS)”: the “IFN-γ ELISPOT response of CTL 4003 vs Tp9_67–75 Muguga, in words” value in the test with CTL 4003 is “enhanced stimulation”. For the same substance, the “IFN-γ ELISPOT response of CTL 495 vs Tp9_67–75 Muguga, in words” value with CTL 495 is “enhanced stimulation”. In addition, the Kd in test [2] (Fig. 2 upper panel, alanine/glycine-substituted Tp9_67–75) came out at 13.4 nM.

With “KFPGMKKSK [Tp9_68–76, Tp9 peptide with 1 aa deleted at the N-terminal end]”, in test [2], the “Peptide binding to BoLA-1*023:01 (folding in ELISA), in words” value was “no folding can be measured”.

“Tp9A8 peptide (Tp9_(67–75) Muguga with alanine at position 8)” yielded a Kd in test [1] of 2.58 nM.
